These binders were tested against T1, CD3 epsilon homodimer protein (UniProt P07766 23-126) (assay: SPR, CD3 epsilon homodimer on chip, one-arm antibody as analyte;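 note: surface plasmon resonance at 25 °C with CD3 epsilon homodimer amine-coupled to a CM4 sensor chip, antibody injected as analyte, HBS-EP+ as running buffer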).
T1 construct: also called CD3 (CD3 epsilon)
T1 sequence (P07766 23-126): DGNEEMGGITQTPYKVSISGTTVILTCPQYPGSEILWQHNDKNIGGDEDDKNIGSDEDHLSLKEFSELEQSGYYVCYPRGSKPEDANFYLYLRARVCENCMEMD

| KD ratio (KD of CE115HA000/KD of altered form) | Binder |
| --- | --- |
| 2.69 | CE115HA000 K52W (antibody, human IgG1, kappa, L234A L235A, N297A, name in Kabat numbering, one-arm antibody) heavy: QVQLVESGGGVVQPGRSLRLSCAASGFTFSNAWMHWVRQAPGKGLEWVAQIWAKSNNYATYYAESVKGRFTISRDDSKNSLYLQMNSLKTEDTAVYYCRYVHYGAYYGVDAWGQGTTVTVSSASTKGPSVFPLAPSSKSTSGGTAALGCLVKDYFPEPVTVSWNSGALTSGVHTFPAVLQSSGLYSLSSVVTVPSSSLGTQTYICNVNHKPSNTKVDKKVEPKSCDKTHTCPPCPAPEAAGGPSVFLFPPKPKDTLMISRTPEVTCVVVDVSHEDPEVKFNWYVDGVEVHNAKTKPREEQYASTYRVVSVLTVLHQDWLNGKEYKCKVSNKALPAPIEKTISKAKGQPREPQVYTLPPSRCELTKNQVSLSCAVKGFYPSDIAVEWESNGQPENNYKTTPPVLDSDGSFFLVSKLTVDKSRWQQGNVFSCSVMHEALHNHYTQKSLSLSPDYKDDDDK EPKSSDKTHTCPPCPAPELLGGPSVFLFPPKPKDTLMISRTPEVTCVVVDVSHEDPEVKFNWYVDGVEVHNAKTKPREEQYNSTYRVVSVLTVLHQDWLNGKEYKCKVSNKALPAPIEKTISKAKGQPREPQVCTLPPSRDELTKNQVSLWCLVKGFYPSDIAVEWESNGQPENNYKTTPPVLDSDGSFFLYSKLTVDKSRWQQGNVFSCSVMHEALHNRYTQKSLSLSP light: DIVMTQSPLSLPVTPGEPASISCRSSQSLVHSNRNTYLHWYQQKPGQAPRLLIYKVSNRFSGVPDRFSGSGSGTDFTLKISRVEAEDVGVYYCGQGTQVPYTFGQGTKLEIKRTVAAPSVFIFPPSDEQLKSGTASVVCLLNNFYPREAKVQWKVDNALQSGNSQESVTEQDSKDSTYSLSSTLTLSKADYEKHKVYACEVTHQGLSSPVTKSFNRGEC |
| 6.47 | CE115HA000 K52Y (antibody, human IgG1, kappa, L234A L235A, N297A, name in Kabat numbering, one-arm antibody) heavy: QVQLVESGGGVVQPGRSLRLSCAASGFTFSNAWMHWVRQAPGKGLEWVAQIYAKSNNYATYYAESVKGRFTISRDDSKNSLYLQMNSLKTEDTAVYYCRYVHYGAYYGVDAWGQGTTVTVSSASTKGPSVFPLAPSSKSTSGGTAALGCLVKDYFPEPVTVSWNSGALTSGVHTFPAVLQSSGLYSLSSVVTVPSSSLGTQTYICNVNHKPSNTKVDKKVEPKSCDKTHTCPPCPAPEAAGGPSVFLFPPKPKDTLMISRTPEVTCVVVDVSHEDPEVKFNWYVDGVEVHNAKTKPREEQYASTYRVVSVLTVLHQDWLNGKEYKCKVSNKALPAPIEKTISKAKGQPREPQVYTLPPSRCELTKNQVSLSCAVKGFYPSDIAVEWESNGQPENNYKTTPPVLDSDGSFFLVSKLTVDKSRWQQGNVFSCSVMHEALHNHYTQKSLSLSPDYKDDDDK EPKSSDKTHTCPPCPAPELLGGPSVFLFPPKPKDTLMISRTPEVTCVVVDVSHEDPEVKFNWYVDGVEVHNAKTKPREEQYNSTYRVVSVLTVLHQDWLNGKEYKCKVSNKALPAPIEKTISKAKGQPREPQVCTLPPSRDELTKNQVSLWCLVKGFYPSDIAVEWESNGQPENNYKTTPPVLDSDGSFFLYSKLTVDKSRWQQGNVFSCSVMHEALHNRYTQKSLSLSP light: DIVMTQSPLSLPVTPGEPASISCRSSQSLVHSNRNTYLHWYQQKPGQAPRLLIYKVSNRFSGVPDRFSGSGSGTDFTLKISRVEAEDVGVYYCGQGTQVPYTFGQGTKLEIKRTVAAPSVFIFPPSDEQLKSGTASVVCLLNNFYPREAKVQWKVDNALQSGNSQESVTEQDSKDSTYSLSSTLTLSKADYEKHKVYACEVTHQGLSSPVTKSFNRGEC |

Continued, binder first:

| Binder | KD ratio (KD of CE115HA000/KD of altered form) |
| --- | --- |
| CE115HA000 K52I (antibody, human IgG1, kappa, L234A L235A, N297A, name in Kabat numbering, one-arm antibody) heavy: QVQLVESGGGVVQPGRSLRLSCAASGFTFSNAWMHWVRQAPGKGLEWVAQIIAKSNNYATYYAESVKGRFTISRDDSKNSLYLQMNSLKTEDTAVYYCRYVHYGAYYGVDAWGQGTTVTVSSASTKGPSVFPLAPSSKSTSGGTAALGCLVKDYFPEPVTVSWNSGALTSGVHTFPAVLQSSGLYSLSSVVTVPSSSLGTQTYICNVNHKPSNTKVDKKVEPKSCDKTHTCPPCPAPEAAGGPSVFLFPPKPKDTLMISRTPEVTCVVVDVSHEDPEVKFNWYVDGVEVHNAKTKPREEQYASTYRVVSVLTVLHQDWLNGKEYKCKVSNKALPAPIEKTISKAKGQPREPQVYTLPPSRCELTKNQVSLSCAVKGFYPSDIAVEWESNGQPENNYKTTPPVLDSDGSFFLVSKLTVDKSRWQQGNVFSCSVMHEALHNHYTQKSLSLSPDYKDDDDK EPKSSDKTHTCPPCPAPELLGGPSVFLFPPKPKDTLMISRTPEVTCVVVDVSHEDPEVKFNWYVDGVEVHNAKTKPREEQYNSTYRVVSVLTVLHQDWLNGKEYKCKVSNKALPAPIEKTISKAKGQPREPQVCTLPPSRDELTKNQVSLWCLVKGFYPSDIAVEWESNGQPENNYKTTPPVLDSDGSFFLYSKLTVDKSRWQQGNVFSCSVMHEALHNRYTQKSLSLSP light: DIVMTQSPLSLPVTPGEPASISCRSSQSLVHSNRNTYLHWYQQKPGQAPRLLIYKVSNRFSGVPDRFSGSGSGTDFTLKISRVEAEDVGVYYCGQGTQVPYTFGQGTKLEIKRTVAAPSVFIFPPSDEQLKSGTASVVCLLNNFYPREAKVQWKVDNALQSGNSQESVTEQDSKDSTYSLSSTLTLSKADYEKHKVYACEVTHQGLSSPVTKSFNRGEC | 3.54 |
| CE115HA000 K52N (antibody, human IgG1, kappa, L234A L235A, N297A, name in Kabat numbering, one-arm antibody) heavy: QVQLVESGGGVVQPGRSLRLSCAASGFTFSNAWMHWVRQAPGKGLEWVAQINAKSNNYATYYAESVKGRFTISRDDSKNSLYLQMNSLKTEDTAVYYCRYVHYGAYYGVDAWGQGTTVTVSSASTKGPSVFPLAPSSKSTSGGTAALGCLVKDYFPEPVTVSWNSGALTSGVHTFPAVLQSSGLYSLSSVVTVPSSSLGTQTYICNVNHKPSNTKVDKKVEPKSCDKTHTCPPCPAPEAAGGPSVFLFPPKPKDTLMISRTPEVTCVVVDVSHEDPEVKFNWYVDGVEVHNAKTKPREEQYASTYRVVSVLTVLHQDWLNGKEYKCKVSNKALPAPIEKTISKAKGQPREPQVYTLPPSRCELTKNQVSLSCAVKGFYPSDIAVEWESNGQPENNYKTTPPVLDSDGSFFLVSKLTVDKSRWQQGNVFSCSVMHEALHNHYTQKSLSLSPDYKDDDDK EPKSSDKTHTCPPCPAPELLGGPSVFLFPPKPKDTLMISRTPEVTCVVVDVSHEDPEVKFNWYVDGVEVHNAKTKPREEQYNSTYRVVSVLTVLHQDWLNGKEYKCKVSNKALPAPIEKTISKAKGQPREPQVCTLPPSRDELTKNQVSLWCLVKGFYPSDIAVEWESNGQPENNYKTTPPVLDSDGSFFLYSKLTVDKSRWQQGNVFSCSVMHEALHNRYTQKSLSLSP light: DIVMTQSPLSLPVTPGEPASISCRSSQSLVHSNRNTYLHWYQQKPGQAPRLLIYKVSNRFSGVPDRFSGSGSGTDFTLKISRVEAEDVGVYYCGQGTQVPYTFGQGTKLEIKRTVAAPSVFIFPPSDEQLKSGTASVVCLLNNFYPREAKVQWKVDNALQSGNSQESVTEQDSKDSTYSLSSTLTLSKADYEKHKVYACEVTHQGLSSPVTKSFNRGEC | 3.29 |
| CE115HA000 K52R (antibody, human IgG1, kappa, L234A L235A, N297A, name in Kabat numbering, one-arm antibody) heavy: QVQLVESGGGVVQPGRSLRLSCAASGFTFSNAWMHWVRQAPGKGLEWVAQIRAKSNNYATYYAESVKGRFTISRDDSKNSLYLQMNSLKTEDTAVYYCRYVHYGAYYGVDAWGQGTTVTVSSASTKGPSVFPLAPSSKSTSGGTAALGCLVKDYFPEPVTVSWNSGALTSGVHTFPAVLQSSGLYSLSSVVTVPSSSLGTQTYICNVNHKPSNTKVDKKVEPKSCDKTHTCPPCPAPEAAGGPSVFLFPPKPKDTLMISRTPEVTCVVVDVSHEDPEVKFNWYVDGVEVHNAKTKPREEQYASTYRVVSVLTVLHQDWLNGKEYKCKVSNKALPAPIEKTISKAKGQPREPQVYTLPPSRCELTKNQVSLSCAVKGFYPSDIAVEWESNGQPENNYKTTPPVLDSDGSFFLVSKLTVDKSRWQQGNVFSCSVMHEALHNHYTQKSLSLSPDYKDDDDK EPKSSDKTHTCPPCPAPELLGGPSVFLFPPKPKDTLMISRTPEVTCVVVDVSHEDPEVKFNWYVDGVEVHNAKTKPREEQYNSTYRVVSVLTVLHQDWLNGKEYKCKVSNKALPAPIEKTISKAKGQPREPQVCTLPPSRDELTKNQVSLWCLVKGFYPSDIAVEWESNGQPENNYKTTPPVLDSDGSFFLYSKLTVDKSRWQQGNVFSCSVMHEALHNRYTQKSLSLSP light: DIVMTQSPLSLPVTPGEPASISCRSSQSLVHSNRNTYLHWYQQKPGQAPRLLIYKVSNRFSGVPDRFSGSGSGTDFTLKISRVEAEDVGVYYCGQGTQVPYTFGQGTKLEIKRTVAAPSVFIFPPSDEQLKSGTASVVCLLNNFYPREAKVQWKVDNALQSGNSQESVTEQDSKDSTYSLSSTLTLSKADYEKHKVYACEVTHQGLSSPVTKSFNRGEC | 0.8 |
| CE115HA000 K52S (antibody, human IgG1, kappa, L234A L235A, N297A, name in Kabat numbering, one-arm antibody) heavy: QVQLVESGGGVVQPGRSLRLSCAASGFTFSNAWMHWVRQAPGKGLEWVAQISAKSNNYATYYAESVKGRFTISRDDSKNSLYLQMNSLKTEDTAVYYCRYVHYGAYYGVDAWGQGTTVTVSSASTKGPSVFPLAPSSKSTSGGTAALGCLVKDYFPEPVTVSWNSGALTSGVHTFPAVLQSSGLYSLSSVVTVPSSSLGTQTYICNVNHKPSNTKVDKKVEPKSCDKTHTCPPCPAPEAAGGPSVFLFPPKPKDTLMISRTPEVTCVVVDVSHEDPEVKFNWYVDGVEVHNAKTKPREEQYASTYRVVSVLTVLHQDWLNGKEYKCKVSNKALPAPIEKTISKAKGQPREPQVYTLPPSRCELTKNQVSLSCAVKGFYPSDIAVEWESNGQPENNYKTTPPVLDSDGSFFLVSKLTVDKSRWQQGNVFSCSVMHEALHNHYTQKSLSLSPDYKDDDDK EPKSSDKTHTCPPCPAPELLGGPSVFLFPPKPKDTLMISRTPEVTCVVVDVSHEDPEVKFNWYVDGVEVHNAKTKPREEQYNSTYRVVSVLTVLHQDWLNGKEYKCKVSNKALPAPIEKTISKAKGQPREPQVCTLPPSRDELTKNQVSLWCLVKGFYPSDIAVEWESNGQPENNYKTTPPVLDSDGSFFLYSKLTVDKSRWQQGNVFSCSVMHEALHNRYTQKSLSLSP light: DIVMTQSPLSLPVTPGEPASISCRSSQSLVHSNRNTYLHWYQQKPGQAPRLLIYKVSNRFSGVPDRFSGSGSGTDFTLKISRVEAEDVGVYYCGQGTQVPYTFGQGTKLEIKRTVAAPSVFIFPPSDEQLKSGTASVVCLLNNFYPREAKVQWKVDNALQSGNSQESVTEQDSKDSTYSLSSTLTLSKADYEKHKVYACEVTHQGLSSPVTKSFNRGEC | 92.1 |

— US20210388087A1 (Chugai, published 2021)
